Where a chain is given by its changes, count along the chain named. In names and notes the source's numbering stands. A value given as a limit tells only on which side of the number the result lay.

The results in this text go back to publication PMC10977697 (PLOS ONE, 2024).

T1: Notch2Long (Notch2 EGF6-EGF12) (human, UniProt Q04721 219-418, biotin on the N-terminal Avi tag (enzymatic))
T1 construct: also called N2L protein; hNotch2; not shown: Avi tag, N-terminal, kept
T1 sequence (looked up): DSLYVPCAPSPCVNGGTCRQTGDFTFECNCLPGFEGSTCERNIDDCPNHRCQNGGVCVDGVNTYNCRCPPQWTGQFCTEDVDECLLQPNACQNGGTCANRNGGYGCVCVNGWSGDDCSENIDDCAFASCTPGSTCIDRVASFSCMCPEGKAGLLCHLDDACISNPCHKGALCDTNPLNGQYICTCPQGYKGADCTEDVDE

T2: Notch2Long (Notch2 EGF6-EGF12) (human, UniProt Q04721 219-418, biotin via the N-terminal Avi tag (enzymatic biotinylation))
T2 construct: also called N2L protein; hNotch2; not shown: Avi tag, N-terminal, kept
T2 sequence (looked up): T1 sequence (looked up)

B1: Her3-Fc_ChTx1 displayed on M13 phage (designed binder)
chain: VSCTTSKECWSVCQRLHNTSWGEQCVTKFCKCEE
notes: Charybdotoxin scaffold; source: M13 phage from E. coli, culture supernatant
B2: Her3-Fc_ChTx1 (designed binder)
chain: B1 chain
notes: Charybdotoxin scaffold
B3: Her3-Fc_ChTx2 displayed on M13 phage (designed binder)
chain: VSCTTSKECWSVCQRLHNTSWLGSCMERFCKCVD
notes: as for B1
B4: Her3-Fc_ChTx2 (designed binder)
chain: B3 chain
notes: Charybdotoxin scaffold
B5: N2L.EET31.32.13 (designed binder)
chain: GCIKSHLWCPRDSDCLAGCVCEVWIQCG
B6: N2L-EET-29 displayed on M13 phage (designed binder)
chain: GCGWTLAHCKQDSDCLAGCVCQPRWVCG
B7: N2L.EET31.43.24 (designed binder)
chain: GCIKSHLWCPKTSDCEAGCICEVWIQCG
B8: N2N-EET-33 (designed binder)
chain: GCQQRRWGGWQQCKQDSDCLAGCVCGPNGFCG
B9: N2N-EET-n13 (designed binder)
chain: B8 chain with Q3G, R5K, W7M, Q12W
B10: N2N-EET-45 (designed binder)
chain: B8 chain with Q3G, R5Q, Q11P, Q12L
B11: HtrA1_CirA38 (designed binder)
chain: WIPCISAALGCSCKNKVCYFLYQICGESCV
B12: HtrA1_HwTx69 (designed binder)
chain: ACKGVFDACTWKNWRQSRSRECCPNAVCSDKHKWCKWKL
notes: Huwentoxin scaffold
B13: Her3-Fc_CBD1 (designed binder)
chain: GPTQSWQGRCGGIGYSGPTVCASGTTCQVLTPYWSECLPGAS
notes: also called Her3_CBD1
B14: Her3-Fc_CBD1 displayed on M13 phage (designed binder)
chain: B13 chain
B15: PCSK9_CnTx2 (designed binder)
chain: ECKGKGAKCSFMTRQGVQTWCCTGSCRSGKC
notes: Conotoxin-MVIIA scaffold
B16: PCSK9_CnTx2 displayed on M13 phage (designed binder)
chain: B15 chain
notes: Conotoxin-MVIIA scaffold
B17: N2L-EET-03 (designed binder)
chain: GCGWTLWHCKQDSDCLAGCVCEPIWWCG
B18: N2L.EET03.10 (designed binder)
chain: GCGWTLRHCKQDSDCLAGCVCRPIWYCG
B19: N2L.EET31.43.43 (designed binder)
chain: GCIRSHVWCKQDSDCEAGCICEIWIQCG
B20: N2L.EET03.34 (designed binder)
chain: GCGWTLRHCKQDSDCLAGCVCKPKWTCG
B21: N2L.EET03.1867 (designed binder)
chain: GCGWTLRHCKQDSDCLAGCVCEPKWMCG
B22: N2L.EET03.88 (designed binder)
chain: GCGWTLRHCKQDSDCLAGCVCEPVWWCG
B23: N2L.EET03.n5 (designed binder)
chain: GCGWTLMHCKQDSDCLAGCVCEPIWWCG
B24: N2L.EET03.67 (designed binder)
chain: GCGWTLWHCKQDSDCLAGCVCEPKWMCG
B25: N2L.EET03.58 (designed binder)
chain: GCGWTLWHCKQDSDCLAGCVCEPKWFCG
B26: N2L.EET31.43.75 (designed binder)
chain: GCIKSHLWCDPRKDCEAGCICEVWIQCG
B27: HtrA1_CirA65 (designed binder)
chain: WIPCISAALGCSCKNKVCYIFSKHLCGESCV
B28: N2L-EET-29 (designed binder)
chain: GCGWTLAHCKQDSDCLAGCVCQPRWVCG
B29: Notch2NRR (Notch2 NRR domain) (domain or fragment)
chain: ATCLSQYCADKARDGVCDEACNSHACQWDGGDCSLTMENPWANCSSPLPCWDYINNQCDELCNTVECLFDNFECQGNSKTCKYDKYCADHFKDNHCDQGCNSEECGWDGLDCAADQPENLAEGTLVIVVLMPPEQLLQDARSFLRALGTLLHTNLRIKRDSQGELMVYPYYGEKSAAMKKQRMTRRSLPGEQEQEVAGSKVFLEIDNRQCVQDSDHCFKNTDAAAALLASHAIQGTLSYPLVSVVSESLTPERTQ
modifications: biotin on the N-terminal Avi tag (enzymatic)
notes: also called NRR protein; not shown: Avi tag, N-terminal, kept
B30: PCSK9FL_CBD2 (designed binder)
chain: GPTQSKYGMCGGIGYSGPTVCASGTTCQVLDPYTSQCLPGAS
B31: PCSK9FL_CBD2 displayed on M13 phage (designed binder)
chain: B30 chain
B32: HtrA1_CnTx83 (designed binder)
chain: ECKGKGAKCSIQWSVYPWKVCCTGSCRSGKC
notes: Conotoxin-MVIIA scaffold
B33: N2N-EET-57 (designed binder)
chain: GCRPRWGGWHCKQDSDCLAGCVCGPNGFCG
B34: N2N-EET-n3 (designed binder)
chain: B33 chain with W6F, G7K, H10T
B35: N2N-EET-63 (designed binder)
chain: B33 chain with R3M, W6Y
B36: N2L.EET31.32.70 (designed binder)
chain: GCIRSHLWCPPSASCLAGCVCEVWIQCG
B37: HtrA1_EET76 (designed binder)
chain: GCHRPWWQLWGLCKQDSDCLAGCVCGPNGFCG

Assay [1] concerns the target Her3-Fc (UniProt P21860 20-643). Nature of the assay: ELISA. Particulars: one partner purified. In general terms: ELISA stands for enzyme-linked immunosorbent assay.
Assay [2] has as its target Her3-Fc Avi-tag (UniProt P21860 20-643). Briefly: SPR. Particulars: both partners purified.
Assay [3] addresses T1, Notch2Long (Notch2 EGF6-EGF12). Briefly: SPR. The settings on record: both partners purified.
Assay [4] shares this target. Briefly: ELISA. Particulars: one partner purified.
For assay [5], the target named is B29. Briefly: SPR. The settings on record: both partners purified.
Assay [6] has as its target T3, HtrA1 (human, UniProt Q92743 23-480, biotin on lysines (Sulfo-NHS-LC-biotin) for panning and SPR).
T3 construct: also called HtrA1 FL; human full-length HtrA1
Nature of the assay: SPR. The settings on record: both partners purified.

The target of assay [7] is T4, PCSK9 (human, UniProt Q8NBP7 31-692, biotin on lysines (Sulfo-NHS-LC-biotin)).
T4 construct: also called PCSK9FL; hPCSK9 FL
T4 sequence (Q8NBP7 31-692): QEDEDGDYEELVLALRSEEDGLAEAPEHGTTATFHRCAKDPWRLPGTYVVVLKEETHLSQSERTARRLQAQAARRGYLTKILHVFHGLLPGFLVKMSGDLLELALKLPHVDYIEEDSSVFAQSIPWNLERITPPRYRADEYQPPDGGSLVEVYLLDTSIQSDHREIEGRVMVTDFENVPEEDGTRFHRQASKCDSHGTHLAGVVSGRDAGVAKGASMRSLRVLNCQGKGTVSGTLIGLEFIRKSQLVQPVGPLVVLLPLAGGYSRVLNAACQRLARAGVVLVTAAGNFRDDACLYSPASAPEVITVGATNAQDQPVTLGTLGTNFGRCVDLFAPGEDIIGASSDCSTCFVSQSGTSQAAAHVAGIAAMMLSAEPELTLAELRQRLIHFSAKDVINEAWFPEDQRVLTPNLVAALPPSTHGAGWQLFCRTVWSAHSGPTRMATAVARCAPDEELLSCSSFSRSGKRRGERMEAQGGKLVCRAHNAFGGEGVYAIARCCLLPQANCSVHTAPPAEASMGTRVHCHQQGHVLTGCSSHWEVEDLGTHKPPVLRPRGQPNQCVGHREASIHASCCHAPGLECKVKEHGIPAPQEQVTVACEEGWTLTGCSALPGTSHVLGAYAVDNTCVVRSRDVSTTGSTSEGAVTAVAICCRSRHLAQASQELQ
Briefly: SPR. Particulars: both partners purified.

Assay [8] addresses T5, PCSK9ΔCRD (PCSK9 lacking the C-terminal Cys-rich domain CRD) (human, UniProt Q8NBP7 31-452, biotin on lysines (Sulfo-NHS-LC-biotin)).
T5 construct: also called PCSK9DCRD; PCSK9dCRDTEV
Briefly: ELISA. Particulars: one partner purified.

Assay [9] concerns the target T1, Notch2Long (Notch2 EGF6-EGF12). Briefly: SPR. Particulars: both partners purified. This is another data set of the same source.
Assay [10] addresses T2, Notch2Long (Notch2 EGF6-EGF12). Nature of the assay: SPR. The settings on record: both partners purified.
The target in assay [11] is T6, N2N-AVR-n6.
T6 construct: AVR9 scaffold; source: synthetic peptide, folded in vitro
Briefly: SPR. The settings on record: both partners purified.

For assay [12], the target named is T7, N2N-AVR-19.
T7 construct: AVR9 scaffold; source: synthetic peptide, folded in vitro
Briefly: SPR. The settings on record: both partners purified.

Assay [13] has as its target T4, PCSK9. Briefly: ELISA. The settings on record: one partner purified.

Sequence of Her3-Fc Avi-tag (P21860 20-643): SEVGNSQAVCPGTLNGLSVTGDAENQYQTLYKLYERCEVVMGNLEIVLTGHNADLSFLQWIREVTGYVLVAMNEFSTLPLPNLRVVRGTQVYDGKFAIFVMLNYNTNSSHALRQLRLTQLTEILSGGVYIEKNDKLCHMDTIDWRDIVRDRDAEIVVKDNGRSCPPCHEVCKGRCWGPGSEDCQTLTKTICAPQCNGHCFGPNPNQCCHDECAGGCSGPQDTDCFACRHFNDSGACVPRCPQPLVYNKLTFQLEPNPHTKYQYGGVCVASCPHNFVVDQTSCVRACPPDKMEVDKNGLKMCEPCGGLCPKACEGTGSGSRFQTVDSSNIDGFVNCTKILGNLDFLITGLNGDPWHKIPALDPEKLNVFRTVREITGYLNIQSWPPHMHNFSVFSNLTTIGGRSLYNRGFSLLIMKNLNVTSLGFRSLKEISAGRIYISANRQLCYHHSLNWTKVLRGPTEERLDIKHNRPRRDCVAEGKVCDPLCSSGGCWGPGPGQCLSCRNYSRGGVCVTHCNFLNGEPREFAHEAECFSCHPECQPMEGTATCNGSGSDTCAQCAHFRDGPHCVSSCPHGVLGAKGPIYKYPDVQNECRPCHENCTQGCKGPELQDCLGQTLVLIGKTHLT
Sequence of Her3-Fc (P21860 20-643): as above
T3 sequence (Q92743 23-480): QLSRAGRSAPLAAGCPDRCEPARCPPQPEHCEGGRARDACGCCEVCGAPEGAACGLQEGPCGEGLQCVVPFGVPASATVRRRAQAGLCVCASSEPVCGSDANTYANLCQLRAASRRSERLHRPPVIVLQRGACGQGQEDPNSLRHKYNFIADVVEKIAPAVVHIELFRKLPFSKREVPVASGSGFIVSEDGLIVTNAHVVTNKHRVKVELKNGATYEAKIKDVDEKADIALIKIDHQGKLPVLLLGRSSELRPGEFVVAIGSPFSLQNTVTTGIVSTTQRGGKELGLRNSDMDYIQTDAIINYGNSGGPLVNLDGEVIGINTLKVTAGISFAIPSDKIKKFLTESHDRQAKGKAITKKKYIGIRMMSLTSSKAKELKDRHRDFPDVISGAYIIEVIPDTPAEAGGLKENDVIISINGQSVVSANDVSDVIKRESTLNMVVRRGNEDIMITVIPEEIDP
T5 sequence (Q8NBP7 31-452, stated change not applied): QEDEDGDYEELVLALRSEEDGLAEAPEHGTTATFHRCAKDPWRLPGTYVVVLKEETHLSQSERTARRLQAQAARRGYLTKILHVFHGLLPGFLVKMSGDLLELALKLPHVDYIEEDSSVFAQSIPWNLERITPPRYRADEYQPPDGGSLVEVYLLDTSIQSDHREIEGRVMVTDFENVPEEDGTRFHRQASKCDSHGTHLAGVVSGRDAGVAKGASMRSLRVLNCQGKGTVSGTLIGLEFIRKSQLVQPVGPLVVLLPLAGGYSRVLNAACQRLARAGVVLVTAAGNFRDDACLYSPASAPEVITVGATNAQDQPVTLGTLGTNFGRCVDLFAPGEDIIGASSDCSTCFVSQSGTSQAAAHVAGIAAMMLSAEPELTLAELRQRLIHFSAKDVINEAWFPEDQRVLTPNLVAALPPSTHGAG

On to B1, for which, in assay [1], the ELISA amounted to 1.7 and the s/n Ratio came to 22.6. What is called Kd is the free concentration of one partner at which half of the binding sites on the other are occupied at equilibrium, for simple one-to-one binding. A higher Kd goes with lower affinity. In turn, B2 showed a Kd in [2] of more than 10 µM.

For the molecule B3, in assay [1], the ELISA stood at 1.6 and the s/n Ratio turned out to be 24.3. Regarding B4, binding in assay [2] was characterised by a dissociation constant (Kd) of 1.5 µM. Molecule B5 registered a Kd in assay [3] of 35 µM. On to B6, for which, in assay [4], the ELISA came out at 0.6 and the s/n Ratio was determined as 4.4.

For B7, the Kd in assay [3] amounted to 3.5 µM. Take B8: the Kd in assay [5] is 55.6 µM. This lies in the double-digit micromolar range. For B9, the Kd in assay [5] amounted to 12 µM.

Regarding B10, in [5], the Kd amounted to 55.9 µM. The molecule B11 had a Kd in assay [6] of 2.5 µM.

The molecule B12 displayed a Kd in assay [6] of 3.7 µM. For B13, in [2], binding was characterised by a dissociation constant (Kd) of 27 µM. B14: in assay [1], the ELISA was determined as 1.7 and the s/n Ratio was found to be 20.2. The molecule B15 registered a Kd in assay [7] of 2.8 µM.

For B16, in assay [8], the ELISA was determined as 1.7 and the s/n Ratio came to 25.9. For the molecule B17, binding in assay [9] was put at a Kd of 43.7 µM. That is a double-digit micromolar value. In the case of B18, the Kd in assay [3] came to 4.5 µM. Still for that read-out and setting: the value for B19 was 3.5 µM.

As to B20, binding in assay [10] was put at a Kd of 8.6 µM. The same measure, in the same setting: the figure for B21 is 9.5 µM.

The molecule B22 displayed a Kd in assay [10] of 8.8 µM. Take B23: the Kd in [10] was found to be 13.2 µM. Same read-out and setting: the value for B24 was 15.4 µM; that for B25 was 8.2 µM. Turning to B26, in assay [3], the Kd was 0.41 µM. In assay [6], B27 came in with a dissociation constant Kd of 2.7 µM. In turn, B28 yielded a Kd in assay [9] of 102 µM. For B29, the results for the Kd in assay [11] and in assay [12] were 0.8 µM and 9.4 µM, respectively.

Regarding B30, the dissociation constant (Kd) in assay [7] is 3.6 µM. On to B31, for which, in assay [13], the ELISA was determined as 1.9 and the s/n Ratio was 26.8. B32: the Kd in assay [6] worked out at 6.4 µM. The molecule B33 had a Kd in assay [5] of 132 µM. For B34, in [5], the Kd turned out to be 180 µM.

Molecule B35 gave a Kd in assay [5] of 166 µM. This Kd and that of the molecule before are within 1.5-fold of each other. B36 returned a Kd in assay [3] of 1 µM. With B37, binding in assay [6] was characterised by a dissociation constant (Kd) of 9.5 µM.
